How the values were obtained:
[1] = target: T1, MUT-7FL/MUT-8CTD chain MUT-7FL;MUT-8CTD (Caenorhabditis elegans;Caenorhabditis …, UniProt P34607;Q19672 1-910;322-578, |); assay: fluorescence polarisation; 50 mM KCl, 5 mM EDTA; FP: 50 nM RNA, 20 mM HEPES/NaOH pH 7.5, 50 mM KCl, 5 mM EDTA (C. elegans) or 250 mM NaCl (human EXD3 and MUT-7 D435A), room temperature, 30 min; details: protein: recombinant;recombinant; copies: 1;1; label: 5'-FAM; single strand
T1 sequence 1: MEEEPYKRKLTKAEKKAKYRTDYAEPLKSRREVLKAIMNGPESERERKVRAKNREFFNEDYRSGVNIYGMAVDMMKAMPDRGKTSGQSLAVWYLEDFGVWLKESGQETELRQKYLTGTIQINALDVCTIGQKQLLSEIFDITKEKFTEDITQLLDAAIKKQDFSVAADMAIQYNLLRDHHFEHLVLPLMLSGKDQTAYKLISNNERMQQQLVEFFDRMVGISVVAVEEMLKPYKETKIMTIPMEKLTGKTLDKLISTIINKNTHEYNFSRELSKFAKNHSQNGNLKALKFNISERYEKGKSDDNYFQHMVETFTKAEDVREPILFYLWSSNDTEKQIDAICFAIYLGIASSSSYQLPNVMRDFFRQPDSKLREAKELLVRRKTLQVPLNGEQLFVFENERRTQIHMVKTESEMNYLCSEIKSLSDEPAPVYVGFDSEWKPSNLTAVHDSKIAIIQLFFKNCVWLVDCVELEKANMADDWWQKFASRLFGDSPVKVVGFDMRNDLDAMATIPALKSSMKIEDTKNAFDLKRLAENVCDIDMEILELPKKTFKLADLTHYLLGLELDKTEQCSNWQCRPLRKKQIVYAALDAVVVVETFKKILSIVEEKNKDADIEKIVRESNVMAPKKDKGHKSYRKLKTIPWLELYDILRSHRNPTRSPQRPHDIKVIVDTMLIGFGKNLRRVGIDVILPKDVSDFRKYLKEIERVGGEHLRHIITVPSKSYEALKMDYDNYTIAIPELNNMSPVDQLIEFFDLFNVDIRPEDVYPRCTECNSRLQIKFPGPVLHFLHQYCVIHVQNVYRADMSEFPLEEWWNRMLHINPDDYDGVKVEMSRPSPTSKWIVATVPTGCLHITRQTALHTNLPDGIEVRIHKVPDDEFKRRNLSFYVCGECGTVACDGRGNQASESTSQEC
T1 sequence 2: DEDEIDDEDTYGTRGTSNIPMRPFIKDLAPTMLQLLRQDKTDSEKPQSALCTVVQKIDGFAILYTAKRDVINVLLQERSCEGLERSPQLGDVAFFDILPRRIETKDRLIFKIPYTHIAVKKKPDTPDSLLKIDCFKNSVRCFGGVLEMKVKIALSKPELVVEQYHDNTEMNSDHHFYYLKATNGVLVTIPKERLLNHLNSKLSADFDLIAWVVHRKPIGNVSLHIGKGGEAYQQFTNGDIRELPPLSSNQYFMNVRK

[2] = target: T2, MUT-7^FL/MUT-8^FL complex (C. elegans, UniProt P34607 1-910; Q19672 1-578); assay: pull-down; purified proteins (5 µM), GST-tagged MUT-16 constructs as bait on glutathione resin; 20 mM HEPES/NaOH pH 7.5, 150 mM NaCl, 10% glycerol, 0.05% IGEPAL, 2 mM DTT; 4 °C; SDS-PAGE, Coomassie; details: both partners purified
T2 construct: C. elegans MUT-7, residues 1-910; C. elegans MUT-8 (RDE-2), residues 1-578; also called MUT-7/MUT-8; full-length MUT-7/MUT-8; source: E. coli BL21(DE3) derivative, co-expressed and purified as a complex through several chromatographic steps
T2 sequence (looked up) 1: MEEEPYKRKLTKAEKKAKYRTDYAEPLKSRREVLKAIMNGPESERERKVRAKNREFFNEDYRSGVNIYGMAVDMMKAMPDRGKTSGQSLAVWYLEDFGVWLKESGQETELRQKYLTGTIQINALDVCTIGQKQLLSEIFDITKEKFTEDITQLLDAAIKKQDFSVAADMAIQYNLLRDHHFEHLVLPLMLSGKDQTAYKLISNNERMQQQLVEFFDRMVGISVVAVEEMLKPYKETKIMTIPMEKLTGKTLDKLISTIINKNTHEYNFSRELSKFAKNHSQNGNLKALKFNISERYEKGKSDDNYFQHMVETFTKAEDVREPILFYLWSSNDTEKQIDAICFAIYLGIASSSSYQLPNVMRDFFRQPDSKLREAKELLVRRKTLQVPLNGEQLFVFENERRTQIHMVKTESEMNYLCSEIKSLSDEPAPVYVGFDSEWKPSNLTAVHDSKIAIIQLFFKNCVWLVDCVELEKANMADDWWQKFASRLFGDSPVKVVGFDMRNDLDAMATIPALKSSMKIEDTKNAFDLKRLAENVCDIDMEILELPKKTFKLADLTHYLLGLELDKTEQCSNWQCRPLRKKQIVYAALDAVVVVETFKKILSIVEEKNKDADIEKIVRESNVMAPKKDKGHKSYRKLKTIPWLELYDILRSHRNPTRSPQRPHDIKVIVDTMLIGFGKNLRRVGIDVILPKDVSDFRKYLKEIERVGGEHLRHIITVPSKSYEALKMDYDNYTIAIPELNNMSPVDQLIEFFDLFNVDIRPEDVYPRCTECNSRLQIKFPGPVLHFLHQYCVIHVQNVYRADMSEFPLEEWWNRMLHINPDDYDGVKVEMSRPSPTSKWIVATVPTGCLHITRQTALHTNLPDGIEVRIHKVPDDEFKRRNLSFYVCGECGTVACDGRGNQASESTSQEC
T2 sequence (looked up) 2: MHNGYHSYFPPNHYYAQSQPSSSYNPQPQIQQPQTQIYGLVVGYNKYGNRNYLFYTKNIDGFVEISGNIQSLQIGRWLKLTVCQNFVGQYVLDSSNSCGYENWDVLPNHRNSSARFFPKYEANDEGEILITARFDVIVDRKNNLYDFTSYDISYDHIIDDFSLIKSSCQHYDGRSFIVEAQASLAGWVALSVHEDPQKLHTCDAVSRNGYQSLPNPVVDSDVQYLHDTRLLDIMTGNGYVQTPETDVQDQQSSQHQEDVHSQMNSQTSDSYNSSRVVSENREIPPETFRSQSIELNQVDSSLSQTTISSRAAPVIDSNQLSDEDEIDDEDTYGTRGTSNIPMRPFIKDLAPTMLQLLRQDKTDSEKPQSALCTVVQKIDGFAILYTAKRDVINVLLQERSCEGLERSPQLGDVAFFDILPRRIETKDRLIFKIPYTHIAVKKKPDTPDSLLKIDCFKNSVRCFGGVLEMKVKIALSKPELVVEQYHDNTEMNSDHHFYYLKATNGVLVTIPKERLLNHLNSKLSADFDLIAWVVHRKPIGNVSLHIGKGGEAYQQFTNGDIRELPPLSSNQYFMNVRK

[3] = target: T3, MUT-8^NTD (1-235), purified (C. elegans, UniProt Q19672 1-235); assay: ITC; cell 46 µM MUT-8^NTD, syringe 600 µM MUT-16^584-724; 20 °C; 25 mM Tris/HCl pH 7.5, 150 mM NaCl, 0.25 mM TCEP; 19 injections of 2 µL; mean of three experiments; details: both partners purified
T3 construct: C. elegans MUT-8 N-terminal domain construct, residues 1-235
T3 sequence (looked up): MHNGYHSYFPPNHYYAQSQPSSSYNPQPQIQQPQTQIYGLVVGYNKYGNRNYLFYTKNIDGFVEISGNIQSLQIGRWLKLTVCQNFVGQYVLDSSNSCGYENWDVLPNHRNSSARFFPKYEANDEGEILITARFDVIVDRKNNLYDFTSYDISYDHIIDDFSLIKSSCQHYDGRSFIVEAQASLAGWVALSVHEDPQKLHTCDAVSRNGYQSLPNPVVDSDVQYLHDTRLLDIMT

B1: 16-mer ssRNA (ssRNA)
RNA: GUUGAUUGAAGAGUUC
B1 showed a Kd [1] of 0.17 µM.

B2: GST-tagged MUT-16^1-724 (domain or fragment, C. elegans, UniProt O62011 1-724, looked up)
chain: MSESDDDYPELDISDQYIDPLGIVVGPPPASYTETDREETPMQNRTEDDTNSYGNSSGEHDYDSYLDSGDDDFDVDAYYANDNMDEPPPETIPDNLIQNVIGRNDNADYDFSDASNPEIMKRDLQLFLSSSLLSNPLKFRSGYSSDELDDCLKSCMGYSLQVTAVLLLPPEIISQLPNDSKTEHAHALVRGGWLQSKEGAFFPVISDSERETVVSLMNGSEEQHKRQERKKKEADTFESEEKEIRTLLTFNMIAELLMAVRNEYSIRSVKYQILSTAYTNMVTGAAHANIFRKYKDILQLDPEKLWNNDWFKEYTNRGTLKKFLTTARFSEIVVSQANGKTVELYFRADDEGNRPVVLFTDEHIADVRNKWKTGNQRNQNYGSQGNYRAGGQRSDDRRGPQQRRNVIVPDPNYQPSTFAGGISNNADDDGSLQPTTSSHFNRNTDRSTSRPPRAPTSPVNRVMETDPLMGQGTSSGAPQRSAIPNPFGGAPALSRSTITNGNRGPSYGDRGERVQDVGDTTSDSEITSEGSYSDEDPEQKEIKRQRRKDKLKKKQERELRSREKHTKSKQQPPSKIETRFNTYKKKSESSATDTSNTPPVDTVNVALPTPVVESSSTTAAPSIPVSTRPEVVVPPENPAPLREVGNFYSKSNHDEDRRNVQLPFTPADTHKPIKVAPKEPVRNPLLKERPSANGFINRRLPSHPAPPPVNQSQPANQPMQTAVY
notes: source: E. coli BL21(DE3) derivative, purified as GST-tagged fusion protein
B2: binds [2].

B3: MUT-16^584-724, purified (SEC, ITC) (domain or fragment, C. elegans, UniProt O62011 584-724, looked up)
chain: KKKSESSATDTSNTPPVDTVNVALPTPVVESSSTTAAPSIPVSTRPEVVVPPENPAPLREVGNFYSKSNHDEDRRNVQLPFTPADTHKPIKVAPKEPVRNPLLKERPSANGFINRRLPSHPAPPPVNQSQPANQPMQTAVY
notes: source: E. coli BL21(DE3) derivative, purified (alone, or co-expressed with MUT-8^NTD and purified as a complex)
Work on B3 yielded a Kd [3] of ~13 µM.

From publication doi:10.1101/2023.12.20.572533, “MUT-7 exoribonuclease activity and localisation are mediated by an ancient domain” (bioRxiv, 2023)
